Read-outs that look alike come from different tables or passages of the source.
Experiments:
HD cell line L428 = assay: Chemotherapeutic drugs on L428 cells pre-cultured with or without cross-linked AC10 (3H-thymidine); format: cell-based
Method: L428 cells were cultured for 24 hours in the presence or absence of 0.1 μg/ml anti-CD30 antibody, AC10, crosslinked by the addition of 20 μg/ml goat anti-mouse IgG antibodies. After the 24-hour culture period, the cells were harvested and washed with phosphate buffered saline (PBS). The cells were then plated into 96-well flat-bottom tissue culture plates at 5×10^3 cells/well and mixed with various dilutions of chemotherapeutic drugs. After a 1-hour exposure to the drugs the cells were washed twice, followed by the addition of fresh culture media. The plates were then incubated at 37° C. for 72 hours followed by a 4-hour incubation with 0.5 μCi/well ^3H-thymidine. The inhibition of growth was determined by comparing the amount of ^3H-thymidine incorporated into treated cells to the amount incorporated into untreated control cells.
To evaluate the effect of the anti-CD30 mAb in combination with chemotherapeutic drugs, L428 cells were incubated for 24 hours in either the absence of antibody or the presence of AC10 at 0.1 μg/ml with 20 μg/ml goat anti-mouse IgG to provide crosslinking for the primary antibody. After this incubation the cells were plated into 96-well tissue culture plates at 5×10^3 cells/well in the presence of dilutions of chemotherapeutic drugs including doxorubicin, cisplatin, and etoposide (Table 3). The EC50, concentration of drug needed to inhibit the incorporation of ^3H-thymidine by 50% compared to untreated control cells, was then determined for cells treated with the drugs alone or the combinations of drug and antibody.

KM-H2 = assay: Proliferation assay (3H-thymidine incorporation), immobilized or cross-linked anti-CD30 mAbs; format: cell-based
Method: (§1) Proliferation assays: CD30 expressing cell lines were cultured in flat-bottom 96-well plates at a density of 50,000 or 5,000 cells/well in growth media (RPMI with 10% fetal bovine serum (FBS) for cell lines L428, KM-H2 and Karpas 299, and RPMI/20% FBS for cell lines HDLM-2 and L540. The cell lines were cultured in the absence or presence of cross-linked soluble anti-CD30 mAbs or immobilized anti-CD30 mAbs, as described below.
(§2) Antibody cross-linking in solution: To cross-link the anti-CD30 antibodies in solution, various dilutions of AC10 or HeFi-1 were titrated into 96-well flat bottom tissue culture plates in the absence or presence of 20 μg/ml polyclonal goat anti-mouse IgG antibodies. Hodgkin's disease cell lines were then added to the plates at either 50,000 or 5,000 cells/well. The plates were incubated at 37° C. for 72 hours and were labeled with ^3H-thymidine, 1 μCi/well, for the final 5 hours.
(§3) Antibody immobilization: Antibody immobilization was obtained by coating wells with antibody in 50 mmol/L Tris buffer (pH 8.5) for 18 hours at 4° C. Prior to the addition of cells, wells were washed twice with PBS to remove unbound mAb. 50,000 or 5,000 cells in a total volume of 200 μl were added to each well. Proliferation was determined by uptake of ^3H-thymidine (0.5 μCi/well) during the final 8 hours of a 72 hour culture period.

L428 [1] = assay: as above; format: cell-based
Method: as §1, §2, §3

HDLM-2 = assay: as above; format: cell-based
Method: as §1, §2, §3

L540 [2] = assay: as above; format: cell-based
Method: as §1, §2, §3

[3] = system: L540cy Hodgkin's disease xenografts; assay: Disseminated L540cy Hodgkin's disease xenograft; format: in vivo, SCID mice; conditions: 1 mg/kg/injection i.p. q2d×10 from d1 (FIG. 5A)
Method: (§4) Human tumor xenograft models: Female C.B-17 SCID mice, obtained from Taconic (Germantown, N.Y.) at 4–6 weeks of age, were used for all efficacy studies. To establish xenograft models of Hodgkin's disease, L540cy (HD) cells were harvested from cell culture, washed in ice cold phosphate buffered saline (PBS), resuspended in PBS, and maintained on ice until implantation. For disseminated disease models, mice were injected intravenously through the tail vein with 10^7 L540cy cells. Solid tumor xenografts were established by injecting mice subcutaneously (s.c.) with 2×10^7 L540cy cells. For therapeutic evaluation the indicated treatment doses and schedules were used.
Administration of AC10 and HeFi-1: Disseminated L540cy tumor bearing mice received 10^7 cells through the tail vein on d0 followed by therapy initiated on d1. Treated mice received i.p. injections of either AC10 or HeFi-1 every two days for a total of 10 injections, q2d×10, at 1 mg/kg/injection.

[4] = system: L540cy Hodgkin's disease xenografts; assay: Subcutaneous L540cy Hodgkin's disease xenograft; format: in vivo, SCID mice; conditions: tumors >150 mm^3 at start, 2 mg/kg twice per week, five injections (FIG. 6)
Method: as §4
For the subcutaneous L540cy model, mice were injected s.c. with 2×10^7 cells and were observed daily for solid tumor formation. When tumors were palpable, the animals were randomly distributed into groups and received either AC10 or HeFi-1 q2d×10 at 2 mg/kg/injection.
To evaluate the efficacy of cAC10 in vivo, SCID mice were implanted subcutaneously with L540cy cells as described above. When the tumors reached an average size of greater than 150 mm^3 the mice were divided into groups that were either untreated or treated with 2 mg/kg cAC 10 twice per week for a total of five injections. The tumors in the untreated mice rapidly grew to an average size of greater than 600 mm^3 (FIG. 6).

L540 cells = assay: Co-cultivation of L540 cells with antibodies, isolation of sCD30 from culture supernatant; format: cell-based; conditions: L540 cells co-cultivated with antibody
Text: At the Fourth Workshop on Leukocyte Differentiation Antigens in Vienna in February 1989, monoclonal antibodies were submitted by three different laboratories and finally characterized as belonging to the CD30 group. […] However, the antibody Ber-H2 also labels a subpopulation of plasma cells (Schwarting et al., 1988, Blood 74:1678–1689) and G. Pallesen (G. Pallesen, 1990, Histopathology 16:409–413) describes, on page 411, that Ber-H2 is cross-reacting with an epitope of an unrelated antigen which is altered by formaldehyde.

L428 [5] = conditions: co-culture with mAb; cited from earlier work
L540 [6] = conditions: co-culture with mAb; cited from earlier work
ALCL tumor xenografts = conditions: Tian et al., 1995; cited from earlier work
[7] = Homo sapiens, L-428, L428, combination of drug and AC10 0.1 μg/ml cross-linked, read-out: EC50 (after incubation with AC10)
[8] = Homo sapiens, L-428, L428, drug alone, read-out: EC50 (drug alone)
[9] = Homo sapiens, L-428, L428, 24 hours with 0.1 μg/ml AC10 cross-linked with 20 μg/ml goat anti-mouse IgG, then 1-hour drug exposure, 72 hours, read-out: EC50, nM with AC10
[10] = Homo sapiens, L-428, L428, no antibody, 1-hour drug exposure, 72 hours, read-out: EC50, nM without AC10
[11] = immobilized mAb 10 μg/ml, 5,000 cells/well, 72 hours (FIG. 2)
[12] = immobilized mAb 10 μg/ml, 50,000 cells/well, 72 hours (FIG. 1)
[13] = soluble mAb 0.1 μg/ml cross-linked with 20 μg/ml goat anti-mouse IgG, 5×10^4 cell/well, 72 hours (FIG. 3)
[14] = soluble mAb cross-linked with 20 μg/ml goat anti-mouse IgG, 5×10^3 cell/well, 72 hours (FIG. 4)

Molecule: COc1cccc2c1C(=O)c1c(O)c3c(c(O)c1C2=O)C[C@@](O)(C(=O)CO)C[C@@H]3O[C@H]1C[C@H](N)[C@H](O)[C@H](C)O1 [Doxorubicin]
- EC50 (HD cell line L428; [7]): ~9 nM
- EC50 (HD cell line L428; [8]): ~45 nM
- EC50 (HD cell line L428; [9]): 45 nM
- EC50 (HD cell line L428; [10]): 9 nM

Molecule: COc1cc([C@@H]2c3cc4c(cc3[C@@H](O[C@@H]3O[C@@H]5CO[C@@H](C)O[C@H]5[C@H](O)[C@H]3O)[C@H]3COC(=O)[C@H]23)OCO4)cc(OC)c1O [Etoposide]
- EC50 (HD cell line L428; [7]): ~600 nM
- EC50 (HD cell line L428; [8]): ~1500 nM
- EC50 (HD cell line L428; [9]): 1500 nM
- EC50 (HD cell line L428; [10]): 600 nM

Molecule: N.N.[Cl][Pt][Cl] [Cisplatin]
- EC50 (HD cell line L428; L428, combination of drug and AC10 0.1 μg/ml cross-linked, read-out: EC50 (after incubation with AC10)): ~500 nM
- EC50 (HD cell line L428; L428, drug alone, read-out: EC50 (drug alone)): ~1500 nM
- EC50 (HD cell line L428; L428, 24 hours with 0.1 μg/ml AC10 cross-linked with 20 μg/ml goat anti-mouse IgG, then 1-hour drug exposure, 72 hours, read-out: EC50, nM with AC10): 1500 nM
- EC50 (HD cell line L428; L428, no antibody, 1-hour drug exposure, 72 hours, read-out: EC50, nM without AC10): 500 nM

B1: AC10: murine anti-CD30 monoclonal antibody prepared against human NK-like cell line YT; hybridoma deposit ATCC PTA-6679 (antibody, listed as Mus musculus, V domains shown)
VH: QIQLQQSGPEVVKPGASVKISCKASGYTFTDYYITWVKQKPGQGLEWIGWIYPGSGNTKYNEKFKGKATLTVDTSSSTAFMQLSSLTSEDTAVYFCANYGNYWFAYWGQGTQVTVSA
VL: DIVLTQSPASLAVSLGQRATISCKASQSVDFDGDSYMNWYQQKPGQPPKVLIYAASNLESGIPARFSGSGSGTDFTLNIHPVEEEDAATYYCQQSNEDPWTFGGGTKLEIK
- cell growth (3H-thymidine incorporation) (KM-H2; [11]): growth inhibition
- cell growth (3H-thymidine incorporation) (KM-H2; [12]): inhibition of cell growth
- cell growth (3H-thymidine incorporation) (KM-H2; [13]): growth inhibited
- cell growth (3H-thymidine incorporation) (KM-H2; soluble mAb 0.11 g/ml cross-linked with 20 μg/ml goat anti-mouse IgG, 5×10^3 cell/well, 72 hours (FIG. 4)): growth inhibited
- cell growth (3H-thymidine incorporation) (L428 [1]; [11]): growth inhibition
- cell growth (3H-thymidine incorporation) (L428 [1]; [12]): inhibition of cell growth
- cell growth (3H-thymidine incorporation) (L428 [1]; [13]): growth inhibited
- cell growth (3H-thymidine incorporation) (L428 [1]; [14]): growth inhibited
- cell growth (3H-thymidine incorporation) (HDLM-2; [11]): growth inhibition
- cell growth (3H-thymidine incorporation) (HDLM-2; [12]): inhibition of cell growth
- cell growth (3H-thymidine incorporation) (HDLM-2; [13]): growth inhibited
- cell growth (3H-thymidine incorporation) (HDLM-2; [14]): growth inhibited
- cell growth (3H-thymidine incorporation) (L540 [2]; [11]): growth inhibition
- cell growth (3H-thymidine incorporation) (L540 [2]; [12]): inhibition of cell growth
- cell growth (3H-thymidine incorporation) (L540 [2]; [13]): growth inhibited
- cell growth (3H-thymidine incorporation) (L540 [2]; [14]): growth inhibited
- signs of disease [3]: no signs of disease

B2: cAC10: chimeric antibody: AC10 heavy and light chain variable regions with human gamma 1 and kappa constant regions (antibody)
heavy: QIQLQQSGPEVVKPGASVKISCKASGYTFTDYYITWVKQKPGQGLEWIGWIYPGSGNTKYNEKFKGKATLTVDTSSSTAFMQLSSLTSEDTAVYFCANYGNYWFAYWGQGTQVTVSA
light: DIVLTQSPASLAVSLGQRATISCKASQSVDFDGDSYMNWYQQKPGQPPKVLIYAASNLESGIPARFSGSGSGTDFTLNIHPVEEEDAATYYCQQSNEDPWTFGGGTKLEIK
modifications: left off: a dimerising Fc or GST
notes: chimeric antibody: AC10 heavy and light chain variable regions with human gamma 1 and kappa constant regions
- average tumor size [4]: remained about the same size

B3: HeFi-1: anti-CD30 mAb produced by immunizing mice with the L428 Hodgkin's disease cell line (antibody, V domains shown)
VH: EVKLVESGGGLVQPGGSLRLSCATSGFTFSDYYMNWVRQPPGKALEWLGFIRNKANGYTTEFSASVMGRFTISRDDSQSILYLQMNTLRAEDSATYYCARDPPYGNPHYYAMDYWGQGTSVTVSS
VL: DIVLTQSPASLAVSLGQRATISCRASKSVSASGYNYMHWYQQKAGQPPKLLIHLASNLESGVPARFSGSGSGTDFTLNIHPVEEEDASTYYCQHSGELPFTFGSGTKLEIK
- release of the sCD30 (L540 cells): weakly enhanced
- viability of the cell line on co-culture (L428 [5]): failed to reveal any direct effect
- cell growth (3H-thymidine incorporation) (KM-H2; [13]): growth inhibited
- cell growth (3H-thymidine incorporation) (L428 [1]; [13]): growth inhibited
- cell growth (3H-thymidine incorporation) (L428 [1]; [14]): growth inhibited
- cell growth (3H-thymidine incorporation) (HDLM-2; [13]): growth inhibited
- cell growth (3H-thymidine incorporation) (HDLM-2; [14]): growth inhibited
- cell growth (3H-thymidine incorporation) (L540 [2]; [13]): growth inhibited
- cell growth (3H-thymidine incorporation) (L540 [2]; [14]): growth inhibited
- viability of the cell line on co-culture (L540 [6]): failed to reveal any direct effect
- survival of SCID mice bearing ALCL tumor xenografts (ALCL tumor xenografts): prolonged survival
- signs of disease [3]: no signs of disease

— US7090843B1, “Recombinant anti-CD30 antibodies and uses thereof” (Seattle Genetics, Inc., priority 2000, dated 2006)
